Data on twelve substances can be found in US8735085B2, “Method for diagnosing diseases using a protein or degradation product based on half-life” (Becton, Dickinson and Company, priority 2007, dated 2014).

Data set [1] in a line: Time-course stability of spiked isotope-labeled (AQUA) peptides in serum and plasma samples, MALDI-TOF MS, first-order fit. The format is in vitro ADME, human. As to conditions: for T1/2 (h) Citrate / T1/2 (h) EDTA / T1/2 (h) Heparin: plasma. An excerpt:
Methods of determining the half-lives of parent peptides may be determined by a process, which includes by example first spiking the peptide into one or more collection vehicles such as blood collection tubes comprising samples of biological fluid. In some embodiments, the collection vehicle is a swab. As described in an example disclosed herein, commercially available blood collection tubes sampled for determining half-lives included P100, EDTA, citrate, or heparin blood collection containers. The peak intensities of the peptide in each sample are measured at various points in time. […] Accordingly, a line may be constructed for each sample. The slope of the line (−kobs), representing the kinetic rate of the first-order degradation, may be used to compute a half-life value. That is, a kinetic rate constant can be determined by fitting the data with: Ln(I)=−kobs t+C, where I is the peak intensity, or the peak area, t is the incubation time period in the study, C is a constant, and kobs is the observed (or apparent) rate constant. The half-life of the peptide is determined by t1/2=Ln(2)/kobs.
A direct test for stability of a peptide biomarker in a collected blood sample was carried out by monitoring its change during a time-course incubation. It was discovered that the spiked peptides themselves are subject to preanalytical degradation, and thus the spiked peptides became our focus for studying the relative instability of peptides in various blood samples. The stability of AQUA FPA was tested by adding it into either a serum or plasma sample (either BD P100, EDTA, citrate, or heparin plasma) collected from a single venipuncture, or a pooled serum or plasma sample from three healthy individuals. After the spiked sample was incubated for specified periods of time, the peptides were measured by MALDI-TOF MS.
Human blood from healthy individuals was directly drawn into evacuated tubes to obtain serum and plasma samples, as described previously (20). Briefly, serum tubes (BD product #366430) were placed at room temperature (r.t., approx. 24° C.) to clot for 60 min after the collection of the blood, and then centrifuged at 2,500×g for 15 min. at room temperature. Plasma tubes, including citrate tube (BD product #369714), heparin tube (BD product #367886), EDTA tube (BD product #367525), and BD P100 tube (BD product #366456), were spun immediately (within 10 min. after blood was drawn), for 15 min at 2,500×g, and at room temperature to minimize the handling condition and to prevent possible platelet activation. Both plasma and serum samples were pipetted out of the blood-collection tubes into Eppendorf tubes and were frozen within 15 minutes at −80° C. until use. With these optimized handling processes, full acquisition and processing time was minimized to approximately 30 minutes for plasma and 90 minutes for serum.
Isotopically labeled peptides were purchased from Sigma-Genosys (The Woodlands, Tex.). All peptides were synthesized with one stable isotopic amino acid residue, either L-Arginine-13C6 15N4, or L-Phenylalanine-13C9 15N1, with mass of 10 higher than its natural counterpart. The quality of each peptide was verified by HPLC, MALDI-TOF MS (FIG. 6), and amino acid analysis by the vendor with purity higher than 98%. […] The peptides were diluted with relevant solvents to make stocks of 400 fmol/μL for spiking experiments.
The frozen serum and plasma were thawed (once only) in a room temperature water bath for approximately 5 minutes, in order to minimize the dwell time by temperature exposure of the samples. Soluble AQUA peptide (50 μL in water) was spiked into a thawed serum or plasma sample (450 μL), resulting in a final concentration of 40 fmol/μL. The samples were incubated at room temperature. A 45-μL aliquot was withdrawn at each specified time, and quenched by adding 5 μL of 2% TFA solution. […]

Data set [2] in a line: Sequential multi-step reaction (SMSR) kinetic modeling of FPA and its fragments in pooled heparin plasma. To be noted: for apparent rate constants of the sequential reactions (k1-k5, truncation of the peptide) / half-lives: heparin plasma pooled from three healthy individuals; for apparent rate constants of the sequential reactions (k1-k5, truncation of the peptide): first-order SMSR simulation; for half-lives: four replicates, first-order SMSR; for T1/2 (h) in Heparin: SMSR model; for incubation time at which the truncated daughter peptide was detected: AQUA FPA spiked in heparinized plasma. The class given is in vitro ADME, human. The protocol: Determining half-lives of the degradation products of the peptide, however, entails further modeling and calculations. For examples, sequential multi-step reaction (SMSR) model may be used. Particularly, the half-life of each daughter peptide (e.g., FPA-1, FPA-2, FPA-3, etc.) is determined using information related to one or more of its parent peptides as well as the measured behavior of the daughter peptides creation and further degradation. Accordingly, as represented below, the peptide FPA, referred to as “a” and having a kinetic rate constant k1, is used to determine the half-life of […], referred to as “b” and having a kinetic rate constant k2, which is used to determine the half-life of FPA-2, referred to as “c” and having a kinetic rate constant of k3, and so on.
Accordingly, kj is the kinetic rate constant of step reaction j. Ii is the measured signal (i.e., the peak intensity in MALDI-TOF MS) of peptide i. For example, measured intensities of each of the degradation products of the peptide over a 4 hour time span may be seen in FIG. 3. The peak intensity of, for example, FPA-4, occurs at 2 hours, where is measures 1216.670 m/z. A0 is the initial peak intensity of the parent peptide at time 0. Since Ii=K′iCi+I0, and I0=0 after baseline subtraction, then Ii=K′iCi or Ci=KiIi (1), where
Such calculations are performed for different points in time (i.e., different values of t), so as to plot the varying intensities of each degradation product against the reaction time, as shown in FIG. 4b. The rate constant of each step reaction, kj, can be computed by simulation of the equations (2b)-(6b). Then, the half-lives for each degradation product may be calculated by the equation t1/2=Ln(2)/kj.
For determining kinetic rate constants in a complex sequential reaction observed in this study, analytical solutions were derived from, a first order sequential multi-step reaction (SMSR), as explained above in the discussion concerning equations (1)-(6), (2a)-(6a), and (2b)-(6b). MATLAB (Version 7.0, Mathworks) was employed to numerically simulate this model with the experimental data, and reaction rate constants were then determined in the sequential pattern following the chain reaction sequences. The modeling process was optimized to achieve a best fit to R^2 (goodness-of-fit) calculation.
The observed decrease of the spiked AQUA FPA peptide is caused by the intrinsic amino-peptidase activity (9, 15, 20, 33) as its six fragments, sequentially truncated from the amino terminus, can be detected during the incubation (FIG. 3, FIG. 8). The process was easily observed in heparinized plasma, since the relative instability in this sample facilitated detection of the various truncated peptides within a reasonable experimental time frame (FIG. 3). […] During further incubation, smaller daughter peptides were detected: FPA-3 at 30 min, FPA-4 at one hour, and both FPA-5 and FPA-6 at two hours (FIG. 3, FIG. 8). None of these peptides was detected after eight-hour incubation.
The measurement of the degradation products was sufficiently unambiguous as to allow definition of a kinetic model of the degradation process. To determine the rate constants of the sequential reaction, the fragments of FPA: FPA-1, FPA-2, FPA-3, FPA-4 (FIG. 3), were measured in heparin plasma pooled from three healthy individuals with four replicates, and the average of peak intensities were modeled according to a first-order SMSR (FIG. 4). Simulation of the peak intensities of time-course MS (FIG. 4B) gave apparent rate constants of the sequential reactions: k1=2.1, k2=0.29, k3=1.96, k4=1.6, and k5=0.04 h^−1 for the first five step truncations (FIG. 4A), with goodness-of-fit (R^2) of 0.84, 0.78, 0.77, 0.87, and 0.76, respectively. Accordingly, the half-lives of FPA, FPA-1, FPA-2, FPA-3, and FPA-4 are 0.29, 2.1, 0.31, 0.38, and 15.2 hours, respectively (FIG. 4A). […]

Like-named read-outs stand apart in the source and are kept apart here. No end group written: not given here. Some results are limits rather than exact numbers.

For the substance “ADSGEGDFLAEGGGVR (listed as Homo sapiens) [FPA]”, in data set [1], the “detectable up until a period of time after collection” value is 12 to 48 h, the “detection of peak after incubation” value is reported as “still easily detected at 48 hours” and the “time until undetectable after collection” value is recorded as “undetectable in less than two hours”. Moreover, in data set [1] (human), the “T1/2 (h) Citrate” value is below 0.1 h, the “T1/2 (h) EDTA” value was determined as 3.51 ± 0.05 h and the “T1/2 (h) Heparin” value amounted to 0.55 ± 0.02 h. Moreover, in data set [1] (human, serum), the “T1/2 (h) Serum” value was determined as 0.30 ± 0.01 h and the “half-life in serum (too short to be measured)” value was “less than 15 min”. In addition, in data set [2], the “apparent rate constants of the sequential reactions (k1-k5, truncation of the peptide)” value (“apparent rate constants” below) is 2.1 h⁻¹ and the half-lives amounted to 0.29 h. In data set [2] (heparin plasma), the “T1/2 (h) in Heparin” value is recorded as 0.29 h.

In the case of BNP: brain natriuretic peptide, the “peptidase-induced degradation of isotopic labeled peptide” value (“peptidase-induced degradation” for short) in data set [1] is recorded as “instability has been observed”.

Take “DFLAEGGGVR (listed as Homo sapiens) [FPA-6]”: the “incubation time at which the truncated daughter peptide was detected” value (“incubation time” below) in data set [2] was “at two hours”.

As for “DSGEGDFLAEGGGVR (listed as Homo sapiens) [FPA-1]”, in data set [2], the “incubation time” value was “Time 0”; the “apparent rate constants” value was 0.29 h⁻¹; the half-lives amounted to 2.1 h. Moreover, in data set [2] (heparin plasma), the “enhanced half-life compared to the parental FPA” value is 7 fold and the “T1/2 (h) in Heparin” value worked out at 2.1 h.

Regarding “EGDFLAEGGGVR (listed as Homo sapiens) [FPA-4]”, in data set [2], the “incubation time” value is recorded as “at one hour”; the “apparent rate constants” value was 0.04 h⁻¹; the half-lives was found to be 15.2 h. Further, in data set [2] (heparin plasma), the “enhanced half-life compared to the parental FPA” value stood at 52 fold and the “T1/2 (h) in Heparin” value stood at 15.2 h. The “time at which the peak intensity occurs” value in data set [2] (heparin plasma, 4 hour time span, FIG. 3) was 2 h.

In the case of “GDFLAEGGGVR (listed as Homo sapiens) [FPA-5]”, the “incubation time” value in data set [2] is listed as “at two hours”.

As for “GEGDFLAEGGGVR (listed as Homo sapiens) [FPA-3]”, in data set [2], the “incubation time” value is reported as “at 30 min”; the “apparent rate constants” value is 1.6 h⁻¹; the half-lives turned out to be 0.38 h. In addition, the “T1/2 (h) in Heparin” value in data set [2] (heparin plasma) is on record as 0.38 h.

On to GLP-1: glucagon-like peptide-1, for which, in data set [1], the “peptidase-induced degradation” value is “instability has been observed”.

Turning to “NGFKSHALQLNNRQIR-OH [C4, NGFKSHALQLNNRQIR]”, the “peptidase-induced degradation” value in data set [1] is “instability has been observed”.

For the substance RPPGFSPFR [bradykinin], in data set [1] (blood samples, BNP, GLP-1, bradykinin data not shown), the “peptidase-induced degradation” value is reported as “instability has been observed”.

For “SGEGDFLAEGGGVR (listed as Homo sapiens) [FPA-2]”, in data set [2], the “incubation time” value was “Time 0”; the “apparent rate constants” value was 1.96 h⁻¹; the half-lives amounted to 0.31 h. Also, the “T1/2 (h) in Heparin” value in data set [2] (heparin plasma) was determined as 0.31 h.

As to “SSKITHRIHWESASLLR (listed as Homo sapiens) [C3f]”, in data set [1], the “peptidase-induced degradation” value was “instability has been observed”. Moreover, in data set [1] (human), the “T1/2 (h) Citrate” value was determined as 0.039 ± 0.01 h, the “T1/2 (h) EDTA” value stood at 0.082 ± 0.01 h and the “T1/2 (h) Heparin” value is 0.075 ± 0.01 h. In data set [1] (human, serum), the “T1/2 (h) Serum” value was 0.079 ± 0.01 h.
